Assays:
Assay in all cases: SPR
[1] = target: C-propeptide trimer of human procollagen III (CPIII) (human) (UniProt P02461)
[2] = target: CPIII-His (human) (UniProt P02461)
[3] = target: mini-procollagen III N306Q (human)

Molecule | KD(1) (heterogeneous ligand model, site 1) [1] [nM] | KD(2) (heterogeneous ligand model, site 2) [1] [nM] | KD(1) (heterogeneous ligand model, site 1) [2] [nM] | KD(2) (heterogeneous ligand model, site 2) [2] [nM] | KD(1) (heterogeneous ligand model, site 1) [3] [nM] | KD(2) (heterogeneous ligand model, site 2) [3] [nM]
CUB1-CUB2 (minimal active fragment of PCPE-1) (domain or fragment) | 4.6 | 28 | 12.8 | 27 | 0.74 | 12.6
procollagen C-proteinase enhancer-1 (PCPE-1) (natural protein) QTPNYTRPVFLCGGDVKGESGYVASEGFPNLYPPNKECIWTITVPEGQTVSLSFRVFDLELHPACRYDALEVFAGSGTSGQRLGRFCGTFRPAPLVAPGNQVTLRMTTDEGTGGRGFLLWYSGRATSGTEHQFCGGRLEKAQGTLTTPNWPESDYPPGISCSWHIIAPPDQVIALTFEKFDLEPDTYCRYDSVSVFNGAVSDDSRRLGKFCGDAVPGSISSEGNELLVQFVSDLSVTADGFSASYKTLPRGTAKEGQGPGPKRGTEPKVKLPPKSQPPEKTEESPSAPDAPTCPKQCRRTGTLQSNFCASSLVVTATVKSMVREPGEGLAVTVSLIGAYKTGGLDLPSPPTGASLKFYVPCKQCPPMKKGVSYLLMGQVEENRGPVLPPESFVVLHRPNQDQILTNLSKRKCPSQPVRAAASQD | 4.7 | 17 | 5.9 | 15 | 0.66 | 10

Source: publication PMC3234718
